Measurements: publication PMC2602789

Target: wild-type Tn3 resolvase (bacterial transposon Tn3) (UniProt P0ADI2)
Assay: SEC

## wild-type Tn3 resolvase (from UniProt P0ADI2 1-185) (enzyme)
  stoichiometry N: 2
